Patent publication US20220153852A1 (IBIO, published 2022)
Residue numbers refer to the chain shown, from its start.

T1: CD25 on CD25-expressing human cells (SUDHL-1, SR786, regulatory T cells) (human, UniProt P01589 22-272)
T1 sequence (looked up): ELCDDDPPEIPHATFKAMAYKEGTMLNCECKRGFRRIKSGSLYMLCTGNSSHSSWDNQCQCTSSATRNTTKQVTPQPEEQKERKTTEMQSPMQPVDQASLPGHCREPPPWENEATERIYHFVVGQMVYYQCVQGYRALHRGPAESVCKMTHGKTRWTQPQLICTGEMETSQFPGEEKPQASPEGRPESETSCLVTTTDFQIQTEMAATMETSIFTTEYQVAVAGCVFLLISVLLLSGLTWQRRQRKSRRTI

T2: human CD25 (ELISA antigen) (human, UniProt P01589 22-213, limits assumed)
T2 construct: The ELISA protocol is described only for cyno CD25; the human antigen's construct is not described
T2 sequence (looked up): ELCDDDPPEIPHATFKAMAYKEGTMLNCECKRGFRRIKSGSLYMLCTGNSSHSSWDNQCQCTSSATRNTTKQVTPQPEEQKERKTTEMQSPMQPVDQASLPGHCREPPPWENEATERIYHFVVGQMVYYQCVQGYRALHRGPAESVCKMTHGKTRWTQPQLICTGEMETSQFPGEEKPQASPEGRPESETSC

T3: recombinant cynomolgus monkey (cyno) CD25 (cynomolgus monkey, UniProt H6WS54 22-213)
T3 sequence: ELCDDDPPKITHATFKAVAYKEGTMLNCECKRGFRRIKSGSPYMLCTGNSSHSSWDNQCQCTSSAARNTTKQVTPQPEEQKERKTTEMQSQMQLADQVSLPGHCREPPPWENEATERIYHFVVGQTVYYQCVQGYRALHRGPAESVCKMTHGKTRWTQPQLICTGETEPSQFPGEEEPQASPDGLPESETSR

B1: 7G7B6 (antibody, V domains shown)
VH: EVQLVESGGDLVQPRGSLKLSCAASGFTFSSYGMSWVRQTPDKRLELVATINGYGDTTYYPDSVKGRFTISRDNAKNTLYLQMSSLKSEDTAMYFCARDRDYGNSYYYALDYWGQGTSVTVSS
VL: QIVLSQSPAILSASPGERVTMTCRASSSVSFMHWLQQKPGSSPKPWIYATSNLASGVSARFSGSGSGTSYSLTITRVEAEDAATYYCQQWSSNPPAFGGGTKLEIK
B2: hD11-H3-L2 (hD11-H3h-L2) (antibody, V domains shown)
VH: QVQLVQSGAEVKKPGASLKISCKGSGYTFTDYAMHWVRQAPGQGLEWIGVISTYSGDAIYAQKFQGRATMTVDTSTSTAYLELSSLRSEDTAVYYCARGVTFDYWGQGTTVTVSS
VL: DIQMTQSPSSLSASVGDRVTITCRASQDISNYLEWYQQKPGKAPKLLVYNAKTLAEGVPSRFSGSGSGTDFTLTISSLQPEDFGTYYCQHHYDTPYTFGQGTKLEIK
B3: hD11-H2-L1 (antibody, V domains shown)
VH: B2 VH with L18V, I20V, I48M, A68V, L81M
VL: B2 VL with V48I, G84A
B4: hD11-H3b-L2 (antibody, V domains shown)
VH: B2 VH with T74K
VL: B2 VL
B5: hD11-H2-L2 (antibody, V domains shown)
VH: B2 VH with L18V, I20V, I48M, A68V, L81M
VL: B2 VL
B6: hD11-H2b-L2 (antibody, V domains shown)
VH: B2 VH with L18V, I20V, I48M, A68V, T74K, L81M
VL: B2 VL
B7: hD11-H3-L1 (hD11-H3h-L1) (antibody, V domains shown)
VH: B2 VH
VL: B2 VL with V48I, G84A
B8: hD11-H1-L1 (antibody, V domains shown)
VH: B2 VH with L18V, I20V, G24A, I48M, A68V, V72R, A79V, L81M
VL: B2 VL with V48I, G84A
B9: hD11-H2b-L1 (antibody, V domains shown)
VH: B2 VH with L18V, I20V, I48M, A68V, T74K, L81M
VL: B2 VL with V48I, G84A
B10: hD11-H3b-L1 (antibody, V domains shown)
VH: B2 VH with T74K
VL: B2 VL with V48I, G84A
B11: hD11-H1-L2 (antibody, V domains shown)
VH: B2 VH with L18V, I20V, G24A, I48M, A68V, V72R, A79V, L81M
VL: B2 VL
notes: Humanized variant of D11 (parental clone carries human IgG1)
B12: D11 (original or parental) (antibody, V domains shown)
VH: QIQLQQPGAELVRPGVSLKISCKGSGYTFTDYAMHWVRQSHAKSLEWIGVISTYSGDAIYNQKFKGKATMTVDKSSSTAYLELARLTSDDSAIYYCARGVTFDYWGQGTTVTVSS
VL: DIQMTQTTSSLSASLGDRVTITCRASQDISNYLEWYQQKQGKSPQLLVYNAKTLAEGVPSRFSGSGSGTQFSLKINSLQPEDFGSYYCQHHYDTPYTFGGGTKLEIK
notes: also called parental D11; original D11

Biological target: T1, CD25 on CD25-expressing human cells …
Assay: cell-based or functional assay

| Binder | Treg ADCC EC50 |
| --- | --- |
| B1 | 0.0194 µg/mL |
| B2 | 0.0048 µg/mL |
| B3 | 0.0178 µg/mL |
| B4 | 0.0077 µg/mL |
| B5 | 0.0133 µg/mL |
| B6 | 0.0145 µg/mL |
| B7 | 0.0683 µg/mL |
| B8 | 0.0206 µg/mL |
| B9 | 0.0089 µg/mL |
| B10 | 0.0317 µg/mL |
| B11 | 0.0467 µg/mL |
| B12 | 0.0135 µg/mL |

Biological target: T2, human CD25 (ELISA antigen)
Assay: ELISA on human CD25, OD450, curve fit

| Binder | Top |
| --- | --- |
| B1 | 3.12 |
| B11 | 3.1 |
| B12 | 3.12 |

Biological target: T3, recombinant cynomolgus monkey (cyno) …
Assay: ELISA on coated cyno CD25, OD450, curve fit
Protocol: (§1) To test for binding to recombinant cynomolgus monkey (cyno) CD25, microtiter plates were coated with 80 ul of 1 ug/ml Cyno CD25 in 50 mM sodium carbonate pH 9.6) at 4° C. overnight. The next day, remove the protein from the wells and block with 200 ul PBS/0.1% BSA/0.05% tween20. The plate was incubated for 1 hour at room temperature. The antibodies starting at 25 nM and 3 fold serially were diluted in PBT buffer and added to the plate for incubation at RT for 1 hour. The plate was then washed and then 1:2500 dilution of HRP conjugate anti-Fab antibody was added. The plate was washed 5-10 times with PBS/tween20 to remove non-specific binders. TMB perxidase substrate and peroxidase solution were added and incubated for the time needed to develop with 80 uL of ELISA stop solution added at the end. OD measurements were then taken at […] using a plate reader (SpectraMax iD3 Plate Reader, Molecular Devices).
(§2) The ratio is indicative of a preference in binding to either cyno or human CD25.

| Binder | Top |
| --- | --- |
| B1 | 2.96 |
| B11 | 3.04 |
| B12 | 3.01 |

Biological target: T3, recombinant cynomolgus monkey (cyno) …
Assay: ratio of the ELISA IC50 on cyno CD25 to that on human CD25
Protocol: as §1, §2

| Binder | Cyno/Human |
| --- | --- |
| B1 | 1.8 |
| B11 | 42.4 |
| B12 | 1.3 |
